In patent publication US4254225A, “Novel neutral glucoamylase and method for its production” (priority 1978, dated 1981):

How the values were obtained:
[1] = type: biochemical; settings: values marked with an asterisk (own)
[2] = Substrate specificity: reaction rate on various substrates at 1% concentration; type: biochemical
Procedure: ^a The enzymatic activities of each glucoamylase were determined with
the substrates present at a 1% concentration; each enzyme' s activity in
relation to dextrin was assigned the value 100, and the activities on the
other substrates are presented as relative
(§1) A 0.5-ml aliquot of a suitably diluted enzyme solution was added to 0.5 ml of a 2% solution of a spray-dried maltodextrin (D.E. about 10) in 0.1 M acetate buffer solution (pH 6.0) and this was incubated at 60° C. for precisely 10 minutes. The enzyme reaction was then stopped by heating the mixture for 5 minutes in a boiling water bath. The amount of dextrose produced was determined by the glucose oxidase method. The amount of enzyme producing 1 micromole of dextrose per minute was defined as 1 unit.

[3] = Relationship between reaction pH and enzymatic activity (optimum pH); type: biochemical; settings: values marked with an asterisk (own)
Procedure: as §1

[4] = Saccharification of about 30% starch hydrolyzate to dextrose; type: biochemical; settings: same substrate concentration as Example 3; pH 4.3 at 60° C.

B1: Aspergillus niger Glucoamylase: conventional glucoamylase from Aspergillus niger, available from Enzyme Development Corporation (protein, UniProt P69328 25-640, looked up)
Glucoamylase: ATLDSWLSNEATVARTAILNNIGADGAWVSGADSGIVVASPSTDNPDYFYTWTRDSGLVLKTLVDLFRNGDTSLLSTIENYISAQAIVQGISNPSGDLSSGAGLGEPKFNVDETAYTGSWGRPQRDGPALRATAMIGFGQWLLDNGYTSTATDIVWPLVRNDLSYVAQYWNQTGYDLWEEVNGSSFFTIAVQHRALVEGSAFATAVGSSCSWCDSQAPEILCYLQSFWTGSFILANFDSSRSGKDANTLLGSIHTFDPEAACDDSTFQPCSPRALANHKEVVDSFRSIYTLNDGLSDSEAVAVGRYPEDTYYNGNPWFLCTLAAAEQLYDALYQWDKQGSLEVTDVSLDFFKALYSDAATGTYSSSSSTYSSIVDAVKTFADGFVSIVETHAASNGSMSEQYDKSDGEQLSARDLTWSYAALLTANNRRNSVVPASWGETSASSVPGTCAATSAIGTYSSVTVTSWPSIVATGGTTTTATPTGSGSVTSTSKTTATASKTSTSTSSTSCTTPTAVAVTFDLTATTTYGENIYLVGSISQLGDWETSDGIALSADKYTSSDPLWYVTVTLPAGESFEYKFIRIESDDSVEWESDPNREYTVPQACGTSTATVTDTWR
With B1 the “Optimum Temp.” value [1] was 70 °C, the “Reaction Rate” value ([2]; substrate Amylpectin, relative to dextrin = 100) was 113 and the “Reaction Rate” value ([2]; substrate Dextrin (D.E. 10), relative, activity on dextrin assigned 100) was 100. For the same molecule, the “Reaction Rate” value ([2]; substrate Glycogen, relative to dextrin = 100) was 100, the “Reaction Rate” value ([2]; substrate Maltohexaose, relative to dextrin = 100) was 100 and the “Reaction Rate” value ([2]; substrate Maltose, relative to dextrin = 100) was 26. The “Reaction Rate” value ([2]; substrate Maltotriose, relative to dextrin = 100) was 12, the “Reaction Rate” value ([2]; substrate Panose, relative to dextrin = 100) was 47 and the “Reaction Rate” value ([2]; substrate Pullulan, relative to dextrin = 100) was 2. For the same molecule, the “Reaction Rate” value ([2]; substrate Soluble Starch, relative to dextrin = 100) was 95, the “Optimum pH” value [3] was 4.5 and the dextrose yield [4] was 96.5%.
